From patent US20240200091A1, “USE OF PROTOPORPHYRINOGEN OXIDASE” (BEIJING DABEINONG BIOTECHNOLOGY CO., LTD., priority 2021, published 2024)

What was measured:
Format in all cases: in vivo
[1] = tested on: Arabidopsis thaliana T1 plants; test: flumioxazin tolerance of transgenic Arabidopsis thaliana T1 plants (spray, grade of pesticide damage); settings: for The grade of pesticide damage/plant: grade 0 / The grade of pesticide damage/plant: grade 1 / The grade of pesticide damage/plant: grade 2 / The grade of pesticide damage/plant: grade 3: 7 DAT, number of plants of 24 per genotype, grades
Summary of the method: (§1)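 Read-out: injury grade at 7 DAT from injured vs total leaf area (0 = as water-sprayed; 1 = <10%; 3 = 100%); grades 0–1 were rated highly resistant. Plants were 18-day-old glufosinate-selected PPO-transgenic T1 lines plus controls, n = 24 per genotype. Doses: saflufenacil 25/100, sulfentrazone 450/900, flumioxazin 60/240, oxyfluorfen 180/720 g ai/ha.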

[2] = tested on: transgenic soybean plants; test: saflufenacil tolerance of transgenic soybean plants (spray, grade of pesticide damage); settings: for The grade of pesticide damage/plant: grade 0 / The grade of pesticide damage/plant: grade 1 / The grade of pesticide damage/plant: grade 2 / The grade of pesticide damage/plant: grade 3: 7 DAT, number of plants of 16 per genotype, grades
[3] = tested on: Arabidopsis thaliana T1 plants; test: sulfentrazone tolerance of transgenic Arabidopsis thaliana T1 plants (spray, grade of pesticide damage); settings: for The grade of pesticide: grade 0 / The grade of pesticide: grade 1 / The grade of pesticide: grade 2 / The grade of pesticide: grade 3: 7 DAT, number of plants of 24 per genotype, grades
Summary of the method: as §1

[4] = tested on: transgenic soybean plants; test: oxyfluorfen tolerance of transgenic soybean plants (spray, grade of pesticide damage); settings: for The grade of pesticide damage/plant: grade 0 / The grade of pesticide damage/plant: grade 1 / The grade of pesticide damage/plant: grade 2 / The grade of pesticide damage/plant: grade 3: 7 DAT, number of plants of 16 per genotype, grades
[5] = tested on: Arabidopsis thaliana T1 plants; test: saflufenacil tolerance of transgenic Arabidopsis thaliana T1 plants (spray, grade of pesticide damage); settings: for The grade of pesticide damage/plant: grade 0 / The grade of pesticide damage/plant: grade 1 / The grade of pesticide damage/plant: grade 2 / The grade of pesticide damage/plant: grade 3: 7 DAT, number of plants of 24 per genotype, grades
Summary of the method: as §1

[6] = tested on: Arabidopsis thaliana T1 plants; test: oxyfluorfen tolerance of transgenic Arabidopsis thaliana T1 plants (spray, grade of pesticide damage); settings: for The grade of pesticide damage/plant: grade 0 / The grade of pesticide damage/plant: grade 1 / The grade of pesticide damage/plant: grade 2 / The grade of pesticide damage/plant: grade 3: 7 DAT, number of plants of 24 per genotype, grades
Summary of the method: as §1

[7] = tested on: transgenic soybean plants; test: flumioxazin tolerance of transgenic soybean plants (spray, grade of pesticide damage); settings: for The grade of pesticide damage/plant: grade 0 / The grade of pesticide damage/plant: grade 1 / The grade of pesticide damage/plant: grade 2 / The grade of pesticide damage/plant: grade 3: 7 DAT, number of plants of 16 per genotype, grades

B1: PPO-APA: nucleotide sequence encoding Arsenophonus protoporphyrinogen oxidase PPO-AP (SEQ ID NO:65), Arabidopsis thaliana/soybean common codon usage bias (nucleic acid)
DNA: ATGTCTTACCTGCTGTTATATTCAGGGAAAAATGGACAAACCAAGAAGATCATTCTGAAAATAACAGAGTATCTTCGAAAAGAAGGAAAGCAATGTGATGTTAGAGATTTGAACATGGATAAGAACTTCAACCTTTCTGTATATCAGAAGGTGCTCGTTGGTGCCTCGATAAGATATGGTCATTTCAATCCCGCAGTCCTCAATTTTGCTCAGAATCACCAAAAGGAGTTAAACACTATTCAATCAGCTTTCTTTGGCGTGAATTTGATGGCTCGTAAACAAGGAAAAGATACTCCTGAGACAAATGTGTATGTGAGGAAGTTTCTTGCCAAAATTCCATGGCAACCAACAATCACCAATGTTTTCAGTGGAGCGTTGAGGTATCCTCAGTACAAATGGCTTGACCGGATAATGATTCAGTTTATCATGAAGATTACTGGTGGTGAAACAAACAAAAACAAGGAAGTTGAATATACTGATTGGGAAAAGGTAGAGTACTTTGCAAGAGAGTTTAATGCTTTGAAATGA
modifications: The nucleotide sequence of PPO-APA
- The grade of pesticide damage/plant: grade 0 ([1]; flumioxazin 60 g ai/ha (1×)): 0 plant
- The grade of pesticide damage/plant: grade 1 ([1]; flumioxazin 60 g ai/ha (1×)): 0 plant
- The grade of pesticide damage/plant: grade 2 ([1]; flumioxazin 60 g ai/ha (1×)): 0 plant
- The grade of pesticide damage/plant: grade 3 ([1]; flumioxazin 60 g ai/ha (1×)): 24 plant
- The grade of pesticide damage/plant: grade 0 ([1]; flumioxazin 240 g ai/ha (4×)): 0 plant
- The grade of pesticide damage/plant: grade 1 ([1]; flumioxazin 240 g ai/ha (4×)): 0 plant
- The grade of pesticide damage/plant: grade 2 ([1]; flumioxazin 240 g ai/ha (4×)): 0 plant
- The grade of pesticide damage/plant: grade 3 ([1]; flumioxazin 240 g ai/ha (4×)): 24 plant
- tolerance to flumioxazin ([1]; flumioxazin at different concentrations (60 and 240 g ai/ha)): basically no tolerance
- The grade of pesticide damage/plant: grade 0 ([2]; saflufenacil 50 g ai/ha (2×)): 0 plant
- The grade of pesticide damage/plant: grade 1 ([2]; saflufenacil 50 g ai/ha (2×)): 0 plant
- The grade of pesticide damage/plant: grade 2 ([2]; saflufenacil 50 g ai/ha (2×)): 8 plant
- The grade of pesticide damage/plant: grade 3 ([2]; saflufenacil 50 g ai/ha (2×)): 8 plant
- The grade of pesticide damage/plant: grade 0 ([2]; saflufenacil 100 g ai/ha (4×)): 0 plant
- The grade of pesticide damage/plant: grade 1 ([2]; saflufenacil 100 g ai/ha (4×)): 0 plant
- The grade of pesticide damage/plant: grade 2 ([2]; saflufenacil 100 g ai/ha (4×)): 0 plant
- The grade of pesticide damage/plant: grade 3 ([2]; saflufenacil 100 g ai/ha (4×)): 16 plant
- tolerance to saflufenacil ([2]; soybean, saflufenacil, compared with the control vector and CK): basically no tolerance
- The grade of pesticide: grade 0 ([3]; sulfentrazone 450 g ai/ha (1×)): 0
- The grade of pesticide: grade 1 ([3]; sulfentrazone 450 g ai/ha (1×)): 0
- The grade of pesticide: grade 2 ([3]; sulfentrazone 450 g ai/ha (1×)): 0
- The grade of pesticide: grade 3 ([3]; sulfentrazone 450 g ai/ha (1×)): 24
- The grade of pesticide: grade 0 ([3]; sulfentrazone 900 g ai/ha (2×)): 0
- The grade of pesticide: grade 1 ([3]; sulfentrazone 900 g ai/ha (2×)): 0
- The grade of pesticide: grade 2 ([3]; sulfentrazone 900 g ai/ha (2×)): 0
- The grade of pesticide: grade 3 ([3]; sulfentrazone 900 g ai/ha (2×)): 24
- tolerance to sulfentrazone ([3]; sulfentrazone at different concentrations (450 and 900 g ai/ha)): no tolerance
- The grade of pesticide damage/plant: grade 0 ([4]; oxyfluorfen 360 g ai/ha (2×)): 0 plant
- The grade of pesticide damage/plant: grade 1 ([4]; oxyfluorfen 360 g ai/ha (2×)): 0 plant
- The grade of pesticide damage/plant: grade 2 ([4]; oxyfluorfen 360 g ai/ha (2×)): 8 plant
- The grade of pesticide damage/plant: grade 3 ([4]; oxyfluorfen 360 g ai/ha (2×)): 8 plant
- The grade of pesticide damage/plant: grade 0 ([4]; oxyfluorfen 720 g ai/ha (4×)): 0 plant
- The grade of pesticide damage/plant: grade 1 ([4]; oxyfluorfen 720 g ai/ha (4×)): 0 plant
- The grade of pesticide damage/plant: grade 2 ([4]; oxyfluorfen 720 g ai/ha (4×)): 0 plant
- The grade of pesticide damage/plant: grade 3 ([4]; oxyfluorfen 720 g ai/ha (4×)): 16 plant
- tolerance to oxyfluorfen ([4]; soybean, oxyfluorfen at four-fold field concentration (720 g ai/ha)): no tolerance
- The grade of pesticide damage/plant: grade 0 ([5]; saflufenacil 25 g ai/ha (1×)): 0 plant
- The grade of pesticide damage/plant: grade 1 ([5]; saflufenacil 25 g ai/ha (1×)): 0 plant
- The grade of pesticide damage/plant: grade 2 ([5]; saflufenacil 25 g ai/ha (1×)): 0 plant
- The grade of pesticide damage/plant: grade 3 ([5]; saflufenacil 25 g ai/ha (1×)): 24 plant
- The grade of pesticide damage/plant: grade 0 ([5]; saflufenacil 100 g ai/ha (4×)): 0 plant
- The grade of pesticide damage/plant: grade 1 ([5]; saflufenacil 100 g ai/ha (4×)): 0 plant
- The grade of pesticide damage/plant: grade 2 ([5]; saflufenacil 100 g ai/ha (4×)): 0 plant
- The grade of pesticide damage/plant: grade 3 ([5]; saflufenacil 100 g ai/ha (4×)): 24 plant
- tolerance to saflufenacil ([5]; saflufenacil at four-fold field concentration (100 g ai/ha)): no tolerance
- tolerance to saflufenacil ([5]; saflufenacil at one-fold field concentration (25 g ai/ha)): no tolerance
- The grade of pesticide damage/plant: grade 0 ([6]; oxyfluorfen 180 g ai/ha (1×)): 0 plant
- The grade of pesticide damage/plant: grade 1 ([6]; oxyfluorfen 180 g ai/ha (1×)): 0 plant
- The grade of pesticide damage/plant: grade 2 ([6]; oxyfluorfen 180 g ai/ha (1×)): 0 plant
- The grade of pesticide damage/plant: grade 3 ([6]; oxyfluorfen 180 g ai/ha (1×)): 24 plant
- The grade of pesticide damage/plant: grade 0 ([6]; oxyfluorfen 720 g ai/ha (4×)): 0 plant
- The grade of pesticide damage/plant: grade 1 ([6]; oxyfluorfen 720 g ai/ha (4×)): 0 plant
- The grade of pesticide damage/plant: grade 2 ([6]; oxyfluorfen 720 g ai/ha (4×)): 0 plant
- The grade of pesticide damage/plant: grade 3 ([6]; oxyfluorfen 720 g ai/ha (4×)): 24 plant
- tolerance to oxyfluorfen ([6]; oxyfluorfen at different concentrations (180 and 720 g ai/ha), compared with the control vector and CK): basically no tolerance
- The grade of pesticide damage/plant: grade 0 ([7]; flumioxazin 120 g ai/ha (2×)): 0 plant
- The grade of pesticide damage/plant: grade 1 ([7]; flumioxazin 120 g ai/ha (2×)): 0 plant
- The grade of pesticide damage/plant: grade 2 ([7]; flumioxazin 120 g ai/ha (2×)): 0 plant
- The grade of pesticide damage/plant: grade 3 ([7]; flumioxazin 120 g ai/ha (2×)): 16 plant
- The grade of pesticide damage/plant: grade 0 ([7]; flumioxazin 240 g ai/ha (4×)): 0 plant
- The grade of pesticide damage/plant: grade 1 ([7]; flumioxazin 240 g ai/ha (4×)): 0 plant
- The grade of pesticide damage/plant: grade 2 ([7]; flumioxazin 240 g ai/ha (4×)): 0 plant
- The grade of pesticide damage/plant: grade 3 ([7]; flumioxazin 240 g ai/ha (4×)): 16 plant
- tolerance to flumioxazin ([7]; soybean, flumioxazin at different concentrations (120 and 240 g ai/ha)): no flumioxazin tolerance
